The target of assay [1] is human complement component C5 (purified) (human) (UniProt P01031). Briefly: cell-based or functional assay.
For assay [2] the target is unchanged. Briefly: plate-bound C3, C5 20 µg/ml with 5G1.1 Fab 20 µg/ml, bound C5 detected with N19/8; competitor C3.
The target is the same in assay [3]. Briefly: plate-bound C4, C5 20 µg/ml with 5G1.1 Fab 20 µg/ml, bound C5 detected with N19/8; competitor C4.
For assay [4] the target is unchanged. Briefly: solution equilibrium with C5, free antibody measured by ELISA (Friguet method), Scatchard analysis. A general note: ELISA stands for enzyme-linked immunosorbent assay.

Experimental findings from patent US6355245 are described below.

Sequence of UniProt P01031 (P01031 19-673 T389I limits assumed, chain 1 of 2): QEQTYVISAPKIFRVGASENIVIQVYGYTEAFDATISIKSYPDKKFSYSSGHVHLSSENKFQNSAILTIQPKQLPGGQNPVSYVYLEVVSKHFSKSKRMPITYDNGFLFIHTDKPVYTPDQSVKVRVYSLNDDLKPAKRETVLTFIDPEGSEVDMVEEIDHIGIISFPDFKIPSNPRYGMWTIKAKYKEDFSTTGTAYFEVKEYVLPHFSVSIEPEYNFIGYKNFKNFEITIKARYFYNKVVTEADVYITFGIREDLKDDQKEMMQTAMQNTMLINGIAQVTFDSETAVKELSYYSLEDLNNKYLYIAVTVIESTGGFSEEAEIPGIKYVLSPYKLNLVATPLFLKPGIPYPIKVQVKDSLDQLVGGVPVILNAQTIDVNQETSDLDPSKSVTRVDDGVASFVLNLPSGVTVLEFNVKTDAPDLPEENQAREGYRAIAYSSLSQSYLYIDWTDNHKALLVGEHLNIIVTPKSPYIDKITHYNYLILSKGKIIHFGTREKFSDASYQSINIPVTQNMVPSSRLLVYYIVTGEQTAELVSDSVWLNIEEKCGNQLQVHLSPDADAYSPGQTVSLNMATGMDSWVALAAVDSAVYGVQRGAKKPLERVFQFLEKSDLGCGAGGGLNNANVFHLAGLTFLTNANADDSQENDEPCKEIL
Sequence of UniProt P01031 (P01031 678-1676 V802I limits assumed, chain 2 of 2): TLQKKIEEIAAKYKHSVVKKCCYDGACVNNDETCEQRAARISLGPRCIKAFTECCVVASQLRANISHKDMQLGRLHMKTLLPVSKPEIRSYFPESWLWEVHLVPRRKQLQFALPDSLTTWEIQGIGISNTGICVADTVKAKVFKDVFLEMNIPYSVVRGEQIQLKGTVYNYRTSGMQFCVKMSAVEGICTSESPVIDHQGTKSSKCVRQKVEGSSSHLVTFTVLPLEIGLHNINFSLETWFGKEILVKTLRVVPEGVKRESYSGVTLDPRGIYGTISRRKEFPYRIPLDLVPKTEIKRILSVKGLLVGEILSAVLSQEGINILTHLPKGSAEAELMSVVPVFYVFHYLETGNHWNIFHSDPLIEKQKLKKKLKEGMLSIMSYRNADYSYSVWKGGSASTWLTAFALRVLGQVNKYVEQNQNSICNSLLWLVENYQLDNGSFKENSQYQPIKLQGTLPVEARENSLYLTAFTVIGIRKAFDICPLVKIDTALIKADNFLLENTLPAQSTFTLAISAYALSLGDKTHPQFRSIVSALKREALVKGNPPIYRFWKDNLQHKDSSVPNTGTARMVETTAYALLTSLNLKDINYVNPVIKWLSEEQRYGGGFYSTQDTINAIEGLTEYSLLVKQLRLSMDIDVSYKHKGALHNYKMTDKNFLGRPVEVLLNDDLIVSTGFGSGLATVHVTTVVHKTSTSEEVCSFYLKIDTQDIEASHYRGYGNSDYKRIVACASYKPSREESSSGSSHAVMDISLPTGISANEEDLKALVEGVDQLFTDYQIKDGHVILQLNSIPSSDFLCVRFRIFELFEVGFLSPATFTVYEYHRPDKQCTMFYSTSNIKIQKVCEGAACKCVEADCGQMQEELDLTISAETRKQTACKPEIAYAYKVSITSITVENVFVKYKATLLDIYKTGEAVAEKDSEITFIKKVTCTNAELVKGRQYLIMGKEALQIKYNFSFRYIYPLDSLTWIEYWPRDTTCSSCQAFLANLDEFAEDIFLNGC

With “5G1.1 Fab (derived from 5G1.1 by conventional papain digestion)”, in assay [1], the concentration that completely blocks C5a generation lay in the range of 0.06 to 0.08 µM and the concentration that completely blocks C5b-9-mediated hemolysis in 20% human serum lay in the range of 0.06 to 0.08 µM. Besides, in assay [2], the percent inhibition of C5 binding to C3 is 60 to 90%. The substance further registered a percent inhibition of C5 binding to C4 in assay [3] of 60 to 90%.
With “m5G1.1 scFv (non-humanized murine 5G1.1 scFv, 5G1.1M1scFv)”, in assay [1], the concentration that completely blocks C5a generation was found to be 0.15 µM and the concentration that completely blocks C5b-9-mediated hemolysis in 20% human serum came out at 0.15 µM.
Take “chimeric N19/8 Fab (N19-8 VL/human kappa constant region and N19-8 VH/human IgG1 Fd)”: the blocking of complement hemolytic activity and of C5a generation in assay [1] came out at 50%.
Turning to “5G1.1 monoclonal antibody (native murine anti-human C5 mAb, produced by hybridoma 5G1.1, ATCC HB-11625)”, in assay [1], the concentration that blocks serum hemolytic activity, 20% v/v human serum was 6.25 µg/mL; the concentration that completely blocks C5a generation fell in the range of 0.06 to 0.08 µM; the concentration that completely blocks C5b-9-mediated hemolysis in 20% human serum lay in the range of 0.06 to 0.08 µM; the molar ratio at which serum hemolytic activity is blocked, 20% v/v human serum (molar ratio 5G1.1/C5) was 0.5. Moreover, in assay [1], the serum hemolytic activity (chicken erythrocyte hemolysis assay, human serum) (molar ratio antibody/C5) stood at 0.5. The Kd (usually the equilibrium constant for the complex coming apart) in assay [4] was 0.03 nM.
